Data: patent EP4733314A1, “NOVEL BISPECIFIC FUSION PROTEIN AND USE THEREOF” (Slbigen Inc., priority 2023, dated 2024)
Values belong to the molecule of their own block, whether it stands above or below them.

How the values were obtained:
[1] = Anti-diabetic effect in db/db mice (blood glucose, HbA1c, insulin, HOMA-IR, HOMA-β); format: in vivo; settings: 15 nmol/kg s.c. every three days for 12 weeks
Protocol: Specifically, 14-week-old male db/db mice (Janvier Labs, France) were subcutaneously injected every three days for 12 weeks with designated doses of Semaglutide, Tirzepatide, or the bispecific fusion protein MG12-8 according to one embodiment of the present invention. Subsequently, non-fasting blood glucose levels were measured at 25-day intervals (on days 25, 50, and 75 of the experiment), and HbA1c levels were measured monthly up to three months. Additionally, at the end of the experiment, fasting blood glucose and serum insulin concentrations were determined, and HOMA-IR and HOMA-β scores were calculated.

[2] = Histological analysis of pancreatic tissue of db/db mice; format: in vivo; settings: pancreas after 12 weeks of dosing
Excerpt: Subsequently, after completion of the above experiment, the present inventors sacrificed the experimental animals and performed histological analysis of pancreatic tissues. Specifically, after euthanizing the animals under general anesthesia at the end of the animal study, the pancreas was excised, fixed in 4% paraformaldehyde, embedded in paraffin, sectioned transversely into 5 µm slices using a microtome, and then subjected to staining either with insulin alone, double staining with insulin and glucagon, or double staining with insulin and Ki-67. All double staining was carried out using fluorescent-labeled antibodies, followed by imaging with a confocal laser microscope.

[3] = Body weight in MASH model with intestinal leakage (CD-HFD + DSS); format: in vivo, C57BL/6J mice; settings: 55 nmol/kg twice daily s.c., two weeks after first administration
Excerpt: (§1) Subsequently, the present inventors investigated the weight reduction and regulation of intestinal leakage in a metabolic dysfunction-associated steatohepatitis (MASH) animal model with intestinal leakage, using Liraglutide as a comparative control and MG12-8 according to one embodiment of the present invention. Specifically, twenty-week-old male C57BL/6J mice were obtained, and overweight was induced by feeding a choline-deficient high-fat diet (CD-HFD). In addition, intestinal leakage was induced by cyclically administering dextran sulfate sodium (DSS) at a low concentration of 1% for 7 days followed by 10 days of regular drinking water. After two weeks from the initiation of CD-HFD feeding, Liraglutide and MG12-8 were subcutaneously administered at their respective prescribed dosages and dosing intervals. Two weeks after the first administration, body weight was measured (FIG. 4a). To assess intestinal leakage, a fluorescein isothiocyanate (FITC)-Dextran (4 kDa) solution was administered orally 4 hours before sacrifice, after which the mice were fasted. The amount of FITC-Dextran translocated into the blood was then evaluated by measuring fluorescence intensity in serum.

[4] = Intestinal leakage (serum FITC-Dextran fluorescence) in MASH model (CD-HFD + DSS); format: in vivo, C57BL/6J mice; settings: 55 nmol/kg twice daily s.c.
Excerpt: as §1

[5] = biological target: GLP-1 receptor; experiment: cell-based or functional assay
[6] = biological target: GLP-2 receptor; experiment: cell-based or functional assay

Molecule: CC[C@H](C)[C@H](NC(=O)[C@H](CC(C)C)NC(=O)[C@H](Cc1c[nH]c2ccccc12)NC(=O)[C@H](CCC(N)=O)NC(=O)[C@@H](NC(=O)[C@H](Cc1ccccc1)NC(=O)[C@H](C)NC(=O)[C@H](CCCCNC(=O)COCCOCCNC(=O)COCCOCCNC(=O)CC[C@H](NC(=O)CCCCCCCCCCCCCCCCCCC(=O)O)C(=O)O)NC(=O)[C@H](CCC(N)=O)NC(=O)[C@H](C)NC(=O)[C@@H](NC(=O)[C@H](CCCCN)NC(=O)[C@H](CC(=O)O)NC(=O)[C@H](CC(C)C)NC(=O)C(C)(C)NC(=O)[C@@H](NC(=O)[C@H](CO)NC(=O)[C@H](Cc1ccc(O)cc1)NC(=O)[C@H](CC(=O)O)NC(=O)[C@H](CO)NC(=O)[C@@H](NC(=O)[C@H](Cc1ccccc1)NC(=O)[C@@H](NC(=O)CNC(=O)[C@H](CCC(=O)O)NC(=O)C(C)(C)NC(=O)[C@@H](N)Cc1ccc(O)cc1)[C@@H](C)O)[C@@H](C)O)[C@@H](C)CC)[C@@H](C)CC)C(C)C)C(=O)N[C@@H](C)C(=O)NCC(=O)NCC(=O)N1CCC[C@H]1C(=O)N[C@@H](CO)C(=O)N[C@@H](CO)C(=O)NCC(=O)N[C@@H](C)C(=O)N1CCC[C@H]1C(=O)N1CCC[C@H]1C(=O)N1CCC[C@H]1C(=O)N[C@@H](CO)C(N)=O [Tirzepatide]
- insulin resistance index (HOMA-IR) [1]: > 40
- number of Ki-67-positive cells per 10,000 µm^2 [2]: showed no improvement compared with the control group

Molecule: Liraglutide (HAEGTFTSDVSSYLEGQAAKEFIAWLVRGRG; REGION 1..31: note = Liraglutide) [GLP-1 receptor agonist marketed by Novo Nordisk as Victoza for the treatment of type 2 diabetes and obesity]
- body weight compared with vehicle [3]: reduced body weights compared with the vehicle-administered group
- intestinal leakage suppression activity (serum FITC-Dextran) [4]: did not exhibit intestinal leakage suppression activity relative to the control

- GLP-1 activity (Set1), EC50 (nM); cAMP bioluminescence in GLP-1R-expressing CHO-K1 cells [5]: 0.69 nM
- GLP-1 activity (Set1), Relative activity compared with hGLP-1 peptide (%) [5]: 100%
- GLP-1 activity (Set2), EC50 (nM); cAMP bioluminescence in GLP-1R-expressing CHO-K1 cells [5]: 0.89 nM
- GLP-1 activity (Set2), Relative activity compared with hGLP-1 peptide (%) [5]: 100%
Molecule: wild-type GLP-1 (human GLP-1 peptide) (from UniProt P01275 21-180)

- GLP-2 activity, EC50 (nM); cAMP bioluminescence in GLP-2R-expressing CHO-K1 cells [6]: 1.18 nM
Molecule: wild-type GLP-2 (human GLP-2 peptide)

- GLP-1 activity (Set1), EC50 (nM); cAMP bioluminescence in GLP-1R-expressing CHO-K1 cells [5]: 1.57 nM
- GLP-1 activity (Set1), Relative activity compared with hGLP-1 peptide (%) [5]: 44%
- GLP-1 activity (Set2), EC50 (nM); cAMP bioluminescence in GLP-1R-expressing CHO-K1 cells [5]: 1.12 nM
- GLP-1 activity (Set2), Relative activity compared with hGLP-1 peptide (%) [5]: 79%
- GLP-2 activity, EC50 (nM); cAMP bioluminescence in GLP-2R-expressing CHO-K1 cells [6]: 2.42 nM
- GLP-2 activity, Relative activity compared with hGLP-2 peptide (%) [6]: 49%
B1: MG12-6 (Fc fusion)
chain 1: HGEGTFTSDVSSYLEGQAAKEFIAWLVKGGPSSGAPPPSGGGGSGGGGSGGGGSEKEKEEQEERTHTCPPCPSHTQPLGVFLFPPKPKDQLMISRTPEVTCVVVDVSQEDPEVQFNWYVDGVEVHNAKTKPREEQFNSTYRVVSVLTVLHQDWLNGKEYKCKVSNKGLPSSIEKTISKAKGQPREPQVYTLPPCQEEMTKNQVSLWCLVKGFYPSDIAVEWESNGQPENNYKTTPPVLDSDGSFFLYSRLTVDKSRWQEGNVFSCSVLHEALHNHYTQKSLSLSLGK
chain 2: HGDGSFSDEMNTILDNLAARDFINWLIQTKITDGGGGGSGGGGSGGGGSAKNTTAPATTRNTTRGGEEKKKEKEKEEQEERTHTCPPCPSHTQPLGVFLFPPKPKDQLMISRTPEVTCVVVDVSQEDPEVQFNWYVDGVEVHNAKTKPREEQFNSTYRVVSVLTVLHQDWLNGKEYKCKVSNKGLPSSIEKTISKAKGQPREPQVCTLPPSQEEMTKNQVSLSCAVKGFYPSDIAVEWESNGQPENNYKTTPPVLDSDGSFFLVSRLTVDKSRWQEGNVFSCSVLHEALHNHYTQKSLSLSLGK

- GLP-1 activity (Set1), EC50 (nM); cAMP bioluminescence in GLP-1R-expressing CHO-K1 cells [5]: 0.35 nM
- GLP-1 activity (Set1), Relative activity compared with hGLP-1 peptide (%) [5]: 194%
- GLP-1 activity (Set2), EC50 (nM); cAMP bioluminescence in GLP-1R-expressing CHO-K1 cells [5]: 0.57 nM
- GLP-1 activity (Set2), Relative activity compared with hGLP-1 peptide (%) [5]: 156%
- GLP-2 activity, EC50 (nM); cAMP bioluminescence in GLP-2R-expressing CHO-K1 cells [6]: 50.8 nM
- GLP-2 activity, Relative activity compared with hGLP-2 peptide (%) [6]: 2%
B2: MG12-7 (Fc fusion)
chain 1: HGEGTFTSDVSSYLEGQAAKEFIAWLVKGGPSSGAPPPSGGGGSGGGGSGGGGSAKNTTAPATTRNTTRGGEEKKKEKEKEEQEERTHTCPPCPSHTQPLGVFLFPPKPKDQLMISRTPEVTCVVVDVSQEDPEVQFNWYVDGVEVHNAKTKPREEQFNSTYRVVSVLTVLHQDWLNGKEYKCKVSNKGLPSSIEKTISKAKGQPREPQVYTLPPCQEEMTKNQVSLWCLVKGFYPSDIAVEWESNGQPENNYKTTPPVLDSDGSFFLYSRLTVDKSRWQEGNVFSCSVLHEALHNHYTQKSLSLSLGK
chain 2: HGDGSFSDEMNTILDGQAARDFINWLIQTKITDGGGGSGGGGSGGGGSEPKSSDKTHTCPPCPSHTQPLGVFLFPPKPKDQLMISRTPEVTCVVVDVSQEDPEVQFNWYVDGVEVHNAKTKPREEQFNSTYRVVSVLTVLHQDWLNGKEYKCKVSNKGLPSSIEKTISKAKGQPREPQVCTLPPSQEEMTKNQVSLSCAVKGFYPSDIAVEWESNGQPENNYKTTPPVLDSDGSFFLVSRLTVDKSRWQEGNVFSCSVLHEALHNHYTQKSLSLSLGK

- GLP-1 activity (Set1), EC50 (nM); cAMP bioluminescence in GLP-1R-expressing CHO-K1 cells [5]: 0.81 nM
- GLP-1 activity (Set1), Relative activity compared with hGLP-1 peptide (%) [5]: 85%
- GLP-1 activity (Set2), EC50 (nM); cAMP bioluminescence in GLP-1R-expressing CHO-K1 cells [5]: 0.71 nM
- GLP-1 activity (Set2), Relative activity compared with hGLP-1 peptide (%) [5]: 125%
- relative GLP-1 activity, MG12-8 Sample #1; cAMP bioluminescence in HEK-GLP-1R cells [5]: 100%
- relative GLP-1 activity, MG12-8 Sample #2; cAMP bioluminescence in HEK-GLP-1R cells [5]: 200%
- relative GLP-1 activity, MG12-8 Sample #3; cAMP bioluminescence in HEK-GLP-1R cells [5]: 300%
- relative GLP-1 activity, MG12-8 Sample #4; cAMP bioluminescence in HEK-GLP-1R cells [5]: 400%
- GLP-2 activity, EC50 (nM); cAMP bioluminescence in GLP-2R-expressing CHO-K1 cells [6]: 19 nM
- GLP-2 activity, Relative activity compared with hGLP-2 peptide (%) [6]: 6%
B3: MG12-8 (Fc fusion)
chain 1: HGEGTFTSDVSSYLEGQAAKEFIAWLVKGGPSSGAPPPSGGGGSGGGGSGGGGSGGGGSGGGGSGGGGSHGEGTFTSDVSSYLEGQAAKEFIAWLVKGGPSSGAPPPSGGGGSGGGGSGGGGSEPKSSDKTHTCPPCPSHTQPLGVFLFPPKPKDQLMISRTPEVTCVVVDVSQEDPEVQFNWYVDGVEVHNAKTKPREEQFNSTYRVVSVLTVLHQDWLNGKEYKCKVSNKGLPSSIEKTISKAKGQPREPQVYTLPPCQEEMTKNQVSLWCLVKGFYPSDIAVEWESNGQPENNYKTTPPVLDSDGSFFLYSRLTVDKSRWQEGNVFSCSVLHEALHNHYTQKSLSLSLGK
chain 2: B2 chain 2
